Results published in patent US6410248.

Key:
[1] = tested on: TATA box-selected zinc finger protein (Zif268 variant, boxed clone FIG. 3A) (artificial); assay: EMSA; conditions: same buffer, 5 mM MgCl2, 20 uM ZnSO4, pH 7.9
[2] = tested on: NRE-selected zinc finger protein (Zif268 variant, boxed clone FIG. 3C) (artificial); assay: EMSA; conditions: same buffer, 5 mM MgCl2, 20 uM ZnSO4, pH 7.9
[3] = tested on: p53 site-selected zinc finger protein (Zif268 variant, boxed clone FIG. 3B) (artificial); assay: EMSA; conditions: same buffer, 5 mM MgCl2, 20 uM ZnSO4, pH 7.9
[4] = tested on: TATA box-selected zinc finger protein (Zif268 variant, boxed clone FIG. 3A) (artificial); assay: competition; conditions: nonspecific over specific dissociation constant ratio; calf thymus competitor in EMSA
[5] = tested on: p53 site-selected zinc finger protein (Zif268 variant, boxed clone FIG. 3B) (artificial); assay: competition; conditions: nonspecific over specific dissociation constant ratio; calf thymus competitor in EMSA
[6] = tested on: NRE-selected zinc finger protein (Zif268 variant, boxed clone FIG. 3C) (artificial); assay: competition; conditions: nonspecific over specific dissociation constant ratio; calf thymus competitor in EMSA
[7] = target: Zif268 zinc fingers 1-3 (wild type) (UniProt P08046); assay: competition; conditions: nonspecific over specific dissociation constant ratio; calf thymus competitor in EMSA

AGGGGGGCTATAAAAGGGGGT (double strand) [TATA box site]
Kd [1]: 0.12 nM

GCCGTCAAGGGTTCAGTGGGG (double strand) [NRE site]
Kd [2]: 0.038 nM

GCTGTTGGGACATGTTCGTGA (double strand) [p53 binding site]
Kd [3]: 0.11 nM

calf thymus DNA
DNA-binding specificity ratio (nonspecific Kd / specific Kd) (fold (Kdns/Kd)) [4]: 25000 | DNA-binding specificity ratio (nonspecific Kd / specific Kd) (fold (Kdns/Kd)) [5]: 54000 | DNA-binding specificity ratio (nonspecific Kd / specific Kd) (fold (Kdns/Kd)) [6]: 36000 | binding signal (fold (Kdns/Kd)) [7]: 31000
